Article PMC11361444

Target: 3XFLAG-ZAPL N658A (human) (UniProt Q7Z2W4)
Test: co-IP; 3XFLAG-ZAPL and myc-TRIM25 co-transfected into ZAP KO HEK293T cells; lysed in FLAG buffer (100mM Tris HCl pH8.0, 150mM NaCl, 5mM EDTA, 5% glycerol, 0.1% NP-40, 1mM DTT); FLAG beads with lysates at 4°C for 45 min, three washes, immunoblot; densitometry of myc-TRIM25 normalized to FLAG-ZAP pulldown and to WT

Chain of UniProt Q7Z2W4 (Q7Z2W4 whole entry N658A): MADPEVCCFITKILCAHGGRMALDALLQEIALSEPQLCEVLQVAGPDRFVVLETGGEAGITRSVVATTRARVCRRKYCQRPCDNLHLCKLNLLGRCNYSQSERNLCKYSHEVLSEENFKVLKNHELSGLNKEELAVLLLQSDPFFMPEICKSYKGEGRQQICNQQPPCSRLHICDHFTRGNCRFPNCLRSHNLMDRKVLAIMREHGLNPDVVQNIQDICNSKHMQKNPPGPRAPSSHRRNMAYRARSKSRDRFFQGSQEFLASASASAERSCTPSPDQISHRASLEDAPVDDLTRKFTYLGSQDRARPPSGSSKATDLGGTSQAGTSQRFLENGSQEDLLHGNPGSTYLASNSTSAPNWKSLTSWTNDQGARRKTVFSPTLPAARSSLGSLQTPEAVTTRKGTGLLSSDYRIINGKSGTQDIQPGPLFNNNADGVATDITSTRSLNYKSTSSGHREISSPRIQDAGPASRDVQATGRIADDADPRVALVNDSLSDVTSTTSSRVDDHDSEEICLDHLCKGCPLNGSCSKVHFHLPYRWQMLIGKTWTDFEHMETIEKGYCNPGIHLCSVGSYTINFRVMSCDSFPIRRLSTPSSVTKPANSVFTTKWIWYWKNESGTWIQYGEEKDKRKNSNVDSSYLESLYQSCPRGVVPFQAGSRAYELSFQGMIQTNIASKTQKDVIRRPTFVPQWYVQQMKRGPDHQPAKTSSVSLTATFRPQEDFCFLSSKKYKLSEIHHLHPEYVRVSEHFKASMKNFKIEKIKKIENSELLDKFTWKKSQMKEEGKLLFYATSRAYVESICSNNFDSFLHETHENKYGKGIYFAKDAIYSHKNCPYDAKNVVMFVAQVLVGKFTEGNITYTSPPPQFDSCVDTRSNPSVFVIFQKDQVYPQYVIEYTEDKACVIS

- myc-TRIM25 immunoprecipitated by FLAG-ZAP, relative to ZAPL WT (x (fold of ZAPL WT)): 1.09
Substance: myc-TRIM25 (tripartite motif containing 25) (from UniProt Q14258 1-630) (natural protein)
